Experimental data published in publication PMC10986000.

Legend:
[1] = molecular target: His-PrsA truncated mutant D3 (amino acids 1 to 146 and 251 to 320; PPIase domain deleted) (S. aureus HG001); assay: cross-linking; E. coli BL21(DE3) cells expressing His-PrsA, D3 or D4 treated with 1% formaldehyde, 5 min, room temperature, 0.1 M sodium phosphate pH 6.8; His-tagged proteins purified on Ni-NTA; SDS-PAGE after 37 °C or 95 °C, Coomassie, immunoblot, LC-MS/MS of bands
[2] = molecular target: protein A (SpA) on the surface of S. aureus HG001 (S. aureus (endogenous in HG001)) (UniProt P02976); assay: flow cytometry on cells; about 10^5 CFU S. aureus HG001 (also HG001ΔprsA and HG001ΔprsA(pGHL-PrsA)) in 2% BSA-PBS incubated with mouse IgG at 37 °C for 30 min, then FITC-conjugated anti-mouse IgG at 4 °C for 30 min; percent bound relative to the unstained population
[3] = molecular target: full-length His-tagged PrsA (amino acid 1 to 320) (S. aureus HG001); assay: cross-linking; E. coli BL21(DE3) cells expressing His-PrsA, D3 or D4 treated with 1% formaldehyde, 5 min, room temperature, 0.1 M sodium phosphate pH 6.8; His-tagged proteins purified on Ni-NTA; SDS-PAGE after 37 °C or 95 °C, Coomassie, immunoblot, LC-MS/MS of bands

Sequence of UniProt P02976 (P02976 37-485): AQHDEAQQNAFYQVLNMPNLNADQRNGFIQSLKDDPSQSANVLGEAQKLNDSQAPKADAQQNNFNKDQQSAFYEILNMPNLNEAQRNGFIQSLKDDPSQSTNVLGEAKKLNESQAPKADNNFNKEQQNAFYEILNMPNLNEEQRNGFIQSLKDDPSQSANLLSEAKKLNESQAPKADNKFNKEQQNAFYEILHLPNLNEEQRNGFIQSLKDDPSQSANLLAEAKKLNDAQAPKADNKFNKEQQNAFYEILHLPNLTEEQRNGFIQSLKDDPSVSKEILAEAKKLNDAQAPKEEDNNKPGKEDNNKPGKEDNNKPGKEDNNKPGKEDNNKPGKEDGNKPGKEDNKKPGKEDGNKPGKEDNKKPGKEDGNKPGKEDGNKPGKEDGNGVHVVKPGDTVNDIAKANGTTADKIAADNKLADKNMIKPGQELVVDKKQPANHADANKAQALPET

His-PrsA truncated mutant D3 (amino acids 1 to 146 and 251 to 320; PPIase domain deleted) (domain or fragment)
stoichiometry N [1]: 2

mouse immunoglobulin IgG
percent of S. aureus binding to IgG [2]: 41.8%

full-length His-tagged PrsA (amino acid 1 to 320) (natural protein)
stoichiometry N [3]: 2
